Molecular target: 6His-PfJ (4.1R binding region of Plasmodium falciparum erythrocyte binding antigen-181, aa 945-1097) (P. falciparum) (UniProt Q8I2B4)
Assay: pull-down; ~700 ng 6His-PfJ coupled to His-Select magnetic beads, GST-4.1R domain (150 ng to 2 μg; heat denatured protein as control) added for 1 hr at room temperature, rinsed with TBS, eluted with 1% SDS, SDS-PAGE with scanning densitometry; Kd a rough estimate from linear transformations of three curves

## GST-10 kDa domain of human erythrocyte protein 4.1 (4.1R) (domain or fragment)
  Kd: 745 nM
